On the set-up of series [1]: species or system CD1 mice. Conditions: mouse, in vivo, iv. As to the method: For animal studies, protein conjugates were labeled with [^111In] after modification of the trypsin portion of conjugates with DTPA. EDC mediated coupling was carried out in aqueous solution at DTPA/EDC/Trypsin lysine residue ratio 500:50:1 at pH 7.5. The resultant DTPA-labeled conjugates were purified by gel chromatography on Sephadex G-25. DTPA to protein molar ratio, as determined by Cu(II) colorimetric assay at 775 nm was approximately 1:4. Unmodified proteins were labeled analogously.
Labeling was performed by transchelation from [^111In] citrate. The labeling solution was prepared by mixing carrier-free [^111In] indium chloride in 0.05 M HCl with a 20-fold volume excess of 0.5 M sodium citrate, pH=5.6. The resultant [^111In] indium citrate solution was added to unbuffered solutions of DTP-modified polymers at 0.2 to 1 mCi of [^111In] per 1 mg of dry substance. The labeled conjugates were separated by gel chromatography on Sephadex G-25, with simultaneous media replacement to sterile isotonic saline. […]
Mice were euthanized at 0.25, 0.5, 1, 2, 4, and 8 hours (n=2). Blood samples and harvested organs (hart, lungs, liver, spleen, kidneys, adrenal glands, stomach, GI, testes, muscle, bone, brain and tail) were analyzed on gamma counter. The amount of radioactivity per organ was expressed as a percentage of the injected dose per gram tissue.

Details of series [2]: species or system mice and rats. Conditions: in vivo. From the text:
Biokinetics and biodistributions were studied by blood and tissue sampling in rats, mice and rabbits using ^111In labeled preparations at clinically relevant doses. Fast initial stages (if present) were studied by dynamic gamma-scintigraphy in anesthetized animals.
Biokinetics of unmodified polyals of various molecular weights were studied in normal mice, rats and rabbits. Biokinetics of model nanocarriers (PHF graft copolymers) and polyal-modified liposomes were studied in rats. Biokinetics of formylpeptide conjugates were studied in normal rabbits and rabbits with focal bacterial inflammation. Protein conjugates were studied in mice and rats.

B1: Trypsin: Bovine pancreatic trypsin (EC 3.4.21.4) Type III; DTPA-modified, 111In-labeled for animal studies (protein, UniProt P00760 24-246, looked up)
Serine protease 1: IVGGYTCGANTVPYQVSLNSGYHFCGGSLINSQWVVSAAHCYKSGIQVRLGEDNINVVEGNEQFISASKSIVHPSYNSNTLNNDIMLIKLKSAASLNSRVASISLPTSCASAGTQCLISGWGNTKSSGTSYPDVLKCLKAPILSDSSCKSAYPGQITSNMFCAGYLEGGKDSCQGDSGGPVVCSGKLQGIVSWGSGCAQKNKPGVYTKVCNYVSWIKQTIASN
modifications: DTPA-modified, 111In-labeled
notes: Bovine pancreatic trypsin (EC 3.4.21.4) Type III; DTPA-modified, 111In-labeled for animal studies
With B1, in series [1], the “clearance of activity from blood within 15 minutes after administration” value was 80% and the “half-life of secondary monoexponential clearance” value came to 4 ± 0.8 h. In addition, the “blood half-life of unmodified protein” value in series [2] turned out to be 7 min.

The values are drawn from US8361442B2, “Oxime conjugates and methods for their formation and use” (The General Hospital Corporation, priority 2002, dated 2013).
